# Test results: paper PMC11046700 (Proceedings of the National Academy of Sciences of the …, 2024)
# B1: mouse WT-APOA5 (mouse apolipoprotein AV with an N-terminal mouse albumin tag) (natural protein, UniProt Q8C7G5 21-368, looked up)
# chain: RKSLWDYFSQNSWSKGVMGQPQKLAQENLKGSFEQDLYNMNNYLEKLGPLRGPGKEPPLLAQDPEGIRKQLQQELGEVSSRLEPYMAAKHQQVGWNLEGLRQQLKPYTAELMEQVGLSVQELQEQLRVVGEDTKAQLLGGVDEALNLLQDMQSRVLHHTDRVKELFHPYAERLVTGIGHHVQELHRSVAPHAAASPARLSRCVQTLSHKLTRKAKDLHTSIQRNLDQLRDELSAFIRVSTDGAEDGDSLDPQALSEEVRQRLQAFRHDTYLQIAAFTQAIDQETEEIQHQLAPPPPSHSAFAPELGHSDSNKALSRLQSRLDDLWEDIAYGLQDQGHSHLSDPEGHSG
# Biological target: the molecule itself
# Experiment: SEC
protein,measurement,value
B1,stoichiometry N,2
